Values of other authors in publication PMC10380471.
Where two headings read alike, the source gives them in different places.

Assays:
[1] = target: consensus peptide
[2] = target: consensus peptide; remark: listed apart in the source
[3] = target: consensus peptide; remark: listed apart in the source

Pim-1, sequence (P11309 whole entry): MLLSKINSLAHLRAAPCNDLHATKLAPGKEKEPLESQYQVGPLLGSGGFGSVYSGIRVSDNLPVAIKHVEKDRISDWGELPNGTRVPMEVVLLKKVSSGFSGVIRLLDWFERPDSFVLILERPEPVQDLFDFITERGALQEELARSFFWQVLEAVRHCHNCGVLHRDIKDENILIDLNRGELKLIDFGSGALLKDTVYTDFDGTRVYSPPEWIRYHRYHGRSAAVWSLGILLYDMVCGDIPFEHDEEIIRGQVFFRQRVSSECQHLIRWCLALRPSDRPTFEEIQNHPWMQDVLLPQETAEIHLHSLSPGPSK
Pim-2, sequence (Q9P1W9 whole entry): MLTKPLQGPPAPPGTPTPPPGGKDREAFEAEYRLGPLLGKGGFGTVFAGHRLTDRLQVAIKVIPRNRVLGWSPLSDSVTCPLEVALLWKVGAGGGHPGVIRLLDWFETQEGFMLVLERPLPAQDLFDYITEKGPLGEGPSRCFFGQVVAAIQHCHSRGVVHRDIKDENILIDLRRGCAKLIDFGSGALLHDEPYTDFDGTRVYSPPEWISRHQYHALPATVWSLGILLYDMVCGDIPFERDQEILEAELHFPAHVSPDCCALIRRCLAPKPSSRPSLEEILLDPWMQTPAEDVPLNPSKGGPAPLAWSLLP

Pim-1 (from UniProt P11309)
Kd [1]: 58 nM

Pim-2 (from UniProt Q9P1W9)
Kd [2]: 640 nM

Pim-3 (from UniProt Q86V86)
Kd [3]: 39 nM
